{
  "source": "paper PMC4272287",
  "about": "(PLoS ONE, 2014)",
  "binders": {"B1": {"name": "sdAb A3, anti-Staphylococcal Enterotoxin B single domain antibody (VHH)", "VHH": "EVQLVESGGGLVQAGDSLRLSCTASGRTFSRAVMGWFRQAPGKEREFVAAISAAPGTAYYAFYADSVRGRFSISADSAKNTVYLQMNSLKPEDTAVYYCAADLKMQVAAYMNQRSVDYWGQGTQVTVSS", "notes": "also called wild type sdAb A3"}, "B2": {"name": "sdAb A3 Construct 1 (A49C I73C) (VHH)", "VHH": "B1 VHH with A49C, I73C", "notes": "Keeps C22/C99"}, "B3": {"name": "sdAb A3 Construct 2 (A50C A108C) (VHH)", "VHH": "B1 VHH with A50C, A108C", "notes": "Keeps C22/C99"}, "B4": {"name": "sdAb A3 Construct 3 (V33C M105C) (VHH)", "VHH": "B1 VHH with V33C, M105C", "notes": "Keeps C22/C99"}, "B5": {"name": "sdAb A3 Construct 4 (Q3C Y118C) (VHH)", "VHH": "B1 VHH with Q3C, Y118C", "notes": "Keeps C22/C99"}},
  "note": "Changes are numbered by the printed parent chain. Names may count otherwise.",
  "data": [
    {"target": "T1, Staphylococcal enterotoxin B (Staphylococcus aureus, strain , UniProt P01552)", "T1 construct": "source: bought: Toxin technologies", "T1 sequence (P01552 28-266)": "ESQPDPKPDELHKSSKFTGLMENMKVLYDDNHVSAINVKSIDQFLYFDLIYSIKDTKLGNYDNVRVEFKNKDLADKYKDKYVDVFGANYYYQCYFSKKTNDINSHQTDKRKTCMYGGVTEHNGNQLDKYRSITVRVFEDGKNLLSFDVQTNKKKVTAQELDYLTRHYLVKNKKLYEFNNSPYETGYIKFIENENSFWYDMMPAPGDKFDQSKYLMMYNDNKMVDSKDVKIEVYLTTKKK", "experiment": "SPR", "conditions": "both partners purified", "units": {"Kd": "nM"}, "values": [
      {"binder": "B1", "Kd": 0.23},
      {"binder": "B2", "Kd": 0.66},
      {"binder": "B3", "Kd": 0.06},
      {"binder": "B4", "Kd": 0.21},
      {"binder": "B5", "Kd": 0.06}
    ]}
  ]
}
